Reference: US11168306B2, “Phage wrapping” (priority 2014, dated 2021)
“Also recorded” adds a separate entry of the source.

Target: T1, PSMA on LNCaP cells (Homo sapiens, UniProt Q04609)
T1 construct: specific recognition of PSMA on the surface of LNCaP cells; endogenous in cells; host or cells: LNCaP (also LNCaP CSS); glutaraldehyde-fixed on the plate
Assay: Cell-based phage ELISA, recognition of cell surface PSMA
Conditions: PEGylated ligands on phage wrapped with K14-Cys
Procedure: The cell-based ELISA was performed as previously described by Watanabe et. al. with several modifications. See e.g., Watanabe, K.; et al., Clin. Biochem. 2001, 34, 291-295. Cells were detached with Trypsin-EDTA, resuspended in PBS, and then collected by centrifuging at 1200 rpm for 5 min. The cells were further washed with PBS and then concentrated as in the previous step. The concentration of the cells was adjusted to 4.5×10^6 cells/mL in PBS using a hemocytometer, and 100 μL was aliquoted to specific wells of a 96-well microtiter (Nunc Maxisorp). Next, 50 μL of 0.15% of glutaraldehyde in PBS was added to the wells at 4° C., and the solution was gently mixed by pipetting. The ELISA plate was then centrifuged at 1200 rpm for 10 min at 4° C., followed by overnight incubation at 4° C. The cell solution was gently removed, and the wells were blocked with 200 μL/well of blocking buffer containing 100 mM glycine, 1% gelatin and 0.1% w/v BSA (bovine serum albumin) in PBS. The plate was incubated overnight (˜20-22 h) at room temperature.
Separately, phage wrapped with PEG and PEGylated ligands were prepared. Phage (10 nM in 100 μL) and 1 μL of K14-alkyne (525 μM in water) were thoroughly mixed by pipetting ˜25 times. For phage wrapped with PEGylated ligands, phage were mixed with 0.75 μL of K14-Cys (525 μM in water). For mixed wrapping on phage surface, 0.5 μL of K14-alkyne was pre-mixed with 0.75 μL of K14-Cys, and then mixed with 100 μL of 10 nM phage. The solution was shaken at room temperature for 15 min on an orbital shaker. Next, 2 μL of PEGylated ligand (625 μM in water) was added to the appropriate wells. For the dual ligand combinations, the PEGylated ligands were pre-mixed in the desired ratio (2:1 for example), and then 2 μL of the mixture was added to the appropriate wells. The solutions were gently mixed by pipetting, and incubated overnight at 4° C.
Next, the click reaction was performed, as previously described, but with the following modifications.^1,2 Triethylammonium acetate was added to a final concentration of 50 mM, followed by the addition of 1.5 μL of 1 mM azide-functionalized PEG. The solutions were mixed by pipetting. Next, ascorbic acid was added to a final concentration of 1 mM and the solutions were mixed by gently pipetting. Next, copper sulfate was added to a final concentration of 1.5 mM, followed by pipetting to mix the solutions. Water was added to the other wells to maintain a consistent phage concentration. The plate was incubated at room temperature for 30 min.
The wells on the ELISA plate were then incubated with the phage samples. The blocking buffer was removed and the wells were gently washed two times with PBS. Next, the phage solution was added to the respective wells and incubated for 45 min. The phage solution was removed, and the wells were washed three times with 300 μL/well of wash buffer PT (0.05% TWEEN-20 in PBS), once with PBS, and then incubated with horseradish-peroxidase-conjugated anti-M13 antibody (100 μL/well, 1:5000 dilution in PBS) for 40 min. The wells were washed three times with PT and once with PBS. The plate was then developed by incubating with HRP substrate solution (100 μL/well; 1 mg/mL o-phenylenediamine dihydrochloride and 0.02% w/v H2O2) in citric acid buffer (50 mM citric acid, 50 mM Na2HPO4, pH 5.0). The HRP activity was measured spectrophotometrically at 450 nm using a microtiter plate reader (Bio-Tek). The absorbance at 630 nm was subtracted from the absorbance at 450 nm to eliminate background.

T1 sequence (Q04609 whole entry): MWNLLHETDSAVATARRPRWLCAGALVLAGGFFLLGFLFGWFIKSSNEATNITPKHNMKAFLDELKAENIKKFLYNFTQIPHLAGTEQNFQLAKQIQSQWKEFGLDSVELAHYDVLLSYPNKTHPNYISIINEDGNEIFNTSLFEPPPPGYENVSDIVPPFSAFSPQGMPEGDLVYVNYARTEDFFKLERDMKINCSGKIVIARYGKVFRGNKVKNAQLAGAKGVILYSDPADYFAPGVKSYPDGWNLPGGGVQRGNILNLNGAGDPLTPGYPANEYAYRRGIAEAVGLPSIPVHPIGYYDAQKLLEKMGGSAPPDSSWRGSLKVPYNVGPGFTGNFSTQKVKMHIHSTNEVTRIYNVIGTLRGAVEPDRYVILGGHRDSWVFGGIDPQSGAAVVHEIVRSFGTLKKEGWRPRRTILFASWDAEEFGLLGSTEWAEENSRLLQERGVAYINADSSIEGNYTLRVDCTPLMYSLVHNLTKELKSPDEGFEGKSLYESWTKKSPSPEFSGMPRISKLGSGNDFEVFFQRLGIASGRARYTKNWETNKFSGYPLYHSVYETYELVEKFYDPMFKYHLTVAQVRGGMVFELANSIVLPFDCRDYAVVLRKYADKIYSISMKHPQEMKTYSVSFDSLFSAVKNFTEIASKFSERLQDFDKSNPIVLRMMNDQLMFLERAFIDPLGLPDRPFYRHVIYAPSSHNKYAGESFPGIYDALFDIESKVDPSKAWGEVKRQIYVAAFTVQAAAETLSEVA

| Molecule | relative binding affinity for cell surface PSMA on LNCaP cells |
| --- | --- |
| P100NSP-2: PEG100, non-specific attachment to ligand 2; bioconjugated to phage wrapped with K14-Cys (conjugate) peptide 1: SECVEVFQNSCDW peptide 2: KKKKKKKKKKKKKKC AEGDDPAKAAFNSLQASATEYIGYAWAMVVVIVGATIGIKLFKKFTSKAS | higher affinity for LNCaP cells compared to P100NSP-1 |
| 2:1 mixture of P100NSP-2 and P100NSP-1: dual PEGylated ligand combination wrapped on phage (conjugate) peptide 1: SECVEVFQNSCDW peptide 2: CALCEFLG peptide 3: KKKKKKKKKKKKKKC AEGDDPAKAAFNSLQASATEYIGYAWAMVVVIVGATIGIKLFKKFTSKAS | maximize the recognition of PSMA on LNCaP cells |
| P100SP-2: PEG100, specific attachment to ligand 2 (conjugate) peptide 1: SECVEVFQNSCDW peptide 2: KKKKKKKKKKKKKKC AEGDDPAKAAFNSLQASATEYIGYAWAMVVVIVGATIGIKLFKKFTSKAS | higher binding affinity for cell surface PSMA than P100NSP-2 |
| P100SP-P4-2: PEG100, specific attachment, PEG4 linker, ligand 2 (conjugate) peptide 1: SECVEVFQNSCDW peptide 2: KKKKKKKKKKKKKKC AEGDDPAKAAFNSLQASATEYIGYAWAMVVVIVGATIGIKLFKKFTSKAS | most effective PEGylated ligand for recognition of PSMA on the cell surface |
| P100NSP-P4-2+P100NSP-P4-1: dual PEGylated ligand combination with PEG4 linker, non-specific attachment, on phage (conjugate) peptide 1: SECVEVFQNSCDW peptide 2: CALCEFLG peptide 3: KKKKKKKKKKKKKKC AEGDDPAKAAFNSLQASATEYIGYAWAMVVVIVGATIGIKLFKKFTSKAS | drop in affinity; also recorded: affinity equivalent to P100NSP-P4-2 |
| P100SP-P4-2+P100SP-P4-1: dual PEGylated ligand combination with PEG4 linker, specific attachment, 2:1 ratio, on phage (conjugate) peptide 1: SECVEVFQNSCDW peptide 2: CALCEFLG peptide 3: KKKKKKKKKKKKKKC AEGDDPAKAAFNSLQASATEYIGYAWAMVVVIVGATIGIKLFKKFTSKAS | significant increase in binding affinity |

Same assay, conditions: PEGylated ligands on phage wrapped with K14-Cys; listed as P100NSP-2+P100NSP-1

| Molecule | relative binding affinity for cell surface PSMA on LNCaP cells |
| --- | --- |
| 2:1 mixture of P100NSP-2 and P100NSP-1: dual PEGylated ligand combination wrapped on phage (conjugate) peptide 1: SECVEVFQNSCDW peptide 2: CALCEFLG peptide 3: KKKKKKKKKKKKKKC AEGDDPAKAAFNSLQASATEYIGYAWAMVVVIVGATIGIKLFKKFTSKAS | modest improvement |
